Reference: patent US20090017041A1

What was measured:
[1] = target: high molecular weight (HMW) proto-fibrillar (PF) oligomer enriched preparation of the Aβ1-42 peptide (Example 15) (human); test: ELISA, fraction coated at 2 µM; antibody 1 µg/ml
[2] = target: low molecular weight (LMW) monomeric preparation of the Aβ1-42 peptide (Example 15) (human); test: ELISA, fraction coated at 2 µM; antibody 1 µg/ml
[3] = target: high molecular weight (HMW) proto-fibrillar (PF) oligomer enriched preparation of the Aβ1-42 peptide (Example 15) (human); test: ELISA, fraction coated at 2 µM; antibody 0.25 µg/ml
[4] = target: low molecular weight (LMW) monomeric preparation of the Aβ1-42 peptide (Example 15) (human); test: as above
[5] = target: high molecular weight (HMW) proto-fibrillar (PF) oligomer enriched preparation of the Aβ1-42 peptide (Example 15) (human); test: ELISA, fraction coated at 2 µM; antibody 0.0625 µg/ml
[6] = target: low molecular weight (LMW) monomeric preparation of the Aβ1-42 peptide (Example 15) (human); test: as above
[7] = target: monomer-enriched preparation of the Aβ1-42 peptide (Example 16); test: ELISA, fraction coated at 2.2 µM; antibody dilution 1:1 (start 0.5 µg/ml)
monomer-enriched preparation of the Aβ1-42 peptide (Example 16), sequence (peptide, as listed by the source): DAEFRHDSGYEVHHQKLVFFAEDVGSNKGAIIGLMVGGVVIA

[8] = target: oligomer-enriched preparation of the Aβ1-42 peptide (Example 16); test: as above
oligomer-enriched preparation of the Aβ1-42 peptide (Example 16), sequence (peptide, as listed by the source): as above

[9] = target: monomer-enriched preparation of the Aβ1-42 peptide (Example 16); test: ELISA, fraction coated at 2.2 µM; antibody dilution 1:16 (start 0.5 µg/ml)
[10] = target: oligomer-enriched preparation of the Aβ1-42 peptide (Example 16); test: as above
[11] = target: monomer-enriched preparation of the Aβ1-42 peptide (Example 16); test: ELISA, fraction coated at 2.2 µM; antibody dilution 1:128 (start 0.5 µg/ml)
[12] = target: oligomer-enriched preparation of the Aβ1-42 peptide (Example 16); test: as above
[13] = target: oligomer-enriched preparation of the Aβ1-42 peptide (Example 16); test: ELISA, fraction coated at 2.2 µM; assay 1; antibody dilution 1:4 (start 0.5 µg/ml)
[14] = target: monomer-enriched preparation of the Aβ1-42 peptide (Example 16); test: ELISA, fraction coated at 2.2 µM; assay 2; antibody dilution 1:2 (start 0.5 µg/ml)
[15] = target: oligomer-enriched preparation of the Aβ1-42 peptide (Example 16); test: as above
[16] = target: monomer-enriched preparation of the Aβ1-42 peptide (Example 16); test: ELISA, fraction coated at 2.2 µM; assay 3; antibody dilution 1:2 (start 0.5 µg/ml)
[17] = target: oligomer-enriched preparation of the Aβ1-42 peptide (Example 16); test: as above
[18] = target: monomer-enriched preparation of the Aβ1-42 peptide (Example 16); test: ELISA, fraction coated at 2.2 µM; assay 3; antibody dilution 1:4 (start 0.5 µg/ml)
[19] = target: oligomer-enriched preparation of the Aβ1-42 peptide (Example 16); test: as above
[20] = target: monomer-enriched preparation of the Aβ1-42 peptide (Example 16); test: ELISA, fraction coated at 2.2 µM; assay 1; antibody dilution 1:16 (start 0.5 µg/ml)
[21] = target: oligomer-enriched preparation of the Aβ1-42 peptide (Example 16); test: as above
[22] = target: monomer-enriched preparation of the Aβ1-42 peptide (Example 16); test: ELISA, fraction coated at 2.2 µM; assay 1; antibody dilution 1:64 (start 0.5 µg/ml)
[23] = target: oligomer-enriched preparation of the Aβ1-42 peptide (Example 16); test: as above
[24] = target: monomer-enriched preparation of the Aβ1-42 peptide (Example 16); test: ELISA, fraction coated at 2.2 µM; assay 2; antibody dilution 1:64 (start 0.5 µg/ml)
[25] = target: oligomer-enriched preparation of the Aβ1-42 peptide (Example 16); test: as above
[26] = target: monomer-enriched preparation of the Aβ1-42 peptide (Example 16); test: ELISA, fraction coated at 2.2 µM; assay 3; antibody dilution 1:16 (start 0.5 µg/ml)
[27] = target: oligomer-enriched preparation of the Aβ1-42 peptide (Example 16); test: as above
[28] = target: monomer-enriched preparation of the Aβ1-42 peptide (Example 16); test: ELISA, fraction coated at 2.2 µM; assay 3; antibody dilution 1:64 (start 0.5 µg/ml)
[29] = target: oligomer-enriched preparation of the Aβ1-42 peptide (Example 16); test: as above
[30] = target: monomer-enriched preparation of the Aβ1-42 peptide (Example 16); test: ELISA, fraction coated at 2.2 µM; assay 1; antibody dilution 1:128 (start 0.5 µg/ml)
[31] = target: oligomer-enriched preparation of the Aβ1-42 peptide (Example 16); test: as above
[32] = target: monomer-enriched preparation of the Aβ1-42 peptide (Example 16); test: ELISA, fraction coated at 2.2 µM; assay 2; antibody dilution 1:128 (start 0.5 µg/ml)
[33] = target: oligomer-enriched preparation of the Aβ1-42 peptide (Example 16); test: as above

high molecular weight (HMW) proto-fibrillar (PF) oligomer enriched preparation of the Aβ1-42 peptide (Example 15) (human), sequence (peptide, as listed by the source): as above
low molecular weight (LMW) monomeric preparation of the Aβ1-42 peptide (Example 15) (human), sequence (peptide, as listed by the source): as above

O.D. (405 nm) [1]: 2.55 O.D.
O.D. (405 nm) [2]: 2.68 O.D.
O.D. (405 nm) [3]: 1.44 O.D.
O.D. (405 nm) [4]: 1.56 O.D.
O.D. (405 nm) [5]: 0.544 O.D.
O.D. (405 nm) [6]: 0.574 O.D.
O.D. (405 nm), mean of 3 assays [7]: 3.83 O.D.
O.D. (405 nm), mean of 3 assays [8]: 3.64 O.D.
O.D. (405 nm), mean of 3 assays [9]: 1.98 O.D.
O.D. (405 nm), mean of 3 assays [10]: 1.92 O.D.
O.D. (405 nm), mean of 3 assays [11]: 0.75 O.D.
O.D. (405 nm), mean of 3 assays [12]: 0.63 O.D.
O.D. (405 nm) [13]: 3.1 O.D.
O.D. (405 nm) [14]: 3.48 O.D.
O.D. (405 nm) [15]: 3.55 O.D.
O.D. (405 nm) [16]: 4 O.D.
O.D. (405 nm) [17]: 3.83 O.D.
O.D. (405 nm) [18]: 3.52 O.D.
O.D. (405 nm) [19]: 3.64 O.D.
O.D. (405 nm) [20]: 1.78 O.D.
O.D. (405 nm) [21]: 1.78 O.D.
O.D. (405 nm) [22]: 0.81 O.D.
O.D. (405 nm) [23]: 0.93 O.D.
O.D. (405 nm) [24]: 0.94 O.D.
O.D. (405 nm) [25]: 0.88 O.D.
O.D. (405 nm) [26]: 2.23 O.D.
O.D. (405 nm) [27]: 2.07 O.D.
O.D. (405 nm) [28]: 1.08 O.D.
O.D. (405 nm) [29]: 0.95 O.D.
O.D. (405 nm) [30]: 0.64 O.D.
O.D. (405 nm) [31]: 0.62 O.D.
O.D. (405 nm) [32]: 0.75 O.D.
O.D. (405 nm) [33]: 0.61 O.D.
Substance: 6E10 control antibody
